Source: the supplement of paper PMC7125110
± gives the standard error. For some assays here: This sample holds only a part of the variants without activity.

B1: glmS ribozyme (parent)
chain: AUAAAAGCGCCAGAACUACAGAAAUGUAGUUGACGAGGAGGAGGUUUAUCGAAUUUUCGGCGGAUGCCUCCAAA

How the values were obtained:
Conditions in all cases: with glucosamine-6-phosphate
glucosamine-6-phosphate [1] = variants of: B1; experiment: kcat; higher = faster cleavage; RNA array
How it was run: (§1)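 A hybridised Cy3 probe tracked barcoded ribozyme variants, transcribed in situ by E. coli RNA polymerase on sequenced MiSeq chips, at 37 °C. The variants received 40 μM to 10 mM glucosamine-6-phosphate in HEPES/KCl/Mg(OAc)2 buffer. kobs came from decay fits and kcat and KM from weighted Michaelis–Menten fits.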

glucosamine-6-phosphate [2] = variants of: B1; experiment: KM; higher = weaker cofactor use; RNA array
How it was run: as §1

glucosamine-6-phosphate [3] = variants of: B1; experiment: self-cleavage kobs at 40 uM GlcN6P; higher = faster cleavage; RNA array
How it was run: as §1

glucosamine-6-phosphate [4] = variants of: B1; experiment: self-cleavage kobs at 160 uM GlcN6P; higher = faster cleavage; RNA array
How it was run: as §1

glucosamine-6-phosphate [5] = variants of: B1; experiment: self-cleavage kobs at 640 uM GlcN6P; higher = faster cleavage; RNA array
How it was run: as §1

glucosamine-6-phosphate [6] = variants of: B1; experiment: self-cleavage kobs at 2500 uM GlcN6P; higher = faster cleavage; RNA array
How it was run: as §1

glucosamine-6-phosphate [7] = variants of: B1; experiment: self-cleavage kobs at 10000 uM GlcN6P; higher = faster cleavage; RNA array
How it was run: as §1

| Variant | kcat (glucosamine-6-phosphate [1]) [s⁻¹] | KM (glucosamine-6-phosphate [2]) [µM] | self-cleavage kobs at 40 uM GlcN6P (glucosamine-6-phosphate [3]) [s⁻¹] | self-cleavage kobs at 160 uM GlcN6P (glucosamine-6-phosphate [4]) [s⁻¹] | self-cleavage kobs at 640 uM GlcN6P (glucosamine-6-phosphate [5]) [s⁻¹] | self-cleavage kobs at 2500 uM GlcN6P (glucosamine-6-phosphate [6]) [s⁻¹] | self-cleavage kobs at 10000 uM GlcN6P (glucosamine-6-phosphate [7]) [s⁻¹] |
| --- | --- | --- | --- | --- | --- | --- | --- |
| A15C C71U | 0.00455 ± 0.0014 | 1580 ± 690 | 0.000165 ± 1.6e-05 | 0.000358 ± 4.6e-05 | 0.00111 ± 0.00013 | 0.00266 ± 0.00039 | 0.00453 ± 0.00056 |
| A14U G62A C70G | 5.52e-05 ± 1.4e-05 |  |  |  | 5.47e-05 ± 2e-05 |  |  |
| A15C G29C G37A C61U | < 1e-05 |  |  |  |  |  |  |
| A14U U69G | 3.85e-05 ± 7.5e-06 |  |  | 4.67e-05 ± 1.3e-05 |  | 3.53e-05 ± 6.6e-06 | 3.9e-05 ± 8.1e-06 |
| A14U U55G | 0.00848 ± 0.0029 | 2280 ± 1100 | 0.000209 ± 3.1e-05 | 0.000508 ± 8e-05 | 0.00176 ± 0.00023 | 0.0041 ± 0.00047 | 0.0105 ± 0.0021 |
| A14U U55C | 0.00666 ± 0.0014 | 1760 ± 500 | 0.000181 ± 2.3e-05 | 0.000488 ± 8.3e-05 | 0.00161 ± 0.00025 | 0.00352 ± 0.00053 | 0.0066 ± 0.001 |
| A15C A42G A53C | 0.00239 ± 0.001 |  |  |  | 0.000469 ± 0.00012 | 0.000746 ± 0.00018 | 0.00192 ± 0.00042 |
| A14U C68U | 0.00143 ± 0.00047 |  | 2.73e-05 ± 7.7e-06 | 6.57e-05 ± 1.2e-05 | 0.000297 ± 3.8e-05 | 0.000422 ± 6.8e-05 | 0.00123 ± 0.00011 |
| A15C A53G | 0.0101 ± 0.0037 | 3060 ± 1500 | 0.000195 ± 2e-05 | 0.000515 ± 8.7e-05 | 0.00139 ± 0.00015 | 0.00454 ± 0.00066 | 0.00839 ± 0.00094 |
| A14U A33C | 7.66e-05 ± 5.8e-06 | 1620 ± 560 |  |  |  | 5.28e-05 ± 1.3e-05 | 6.52e-05 ± 7.3e-06 |
| A15C C61U | < 1e-05 |  | < 1e-05 | < 1e-05 | < 1e-05 |  |  |
| A14U G32A | 0.0126 ± 0.0035 | 3720 ± 1400 | 0.000167 ± 1.7e-05 | 0.00046 ± 0.00011 | 0.00156 ± 0.00027 | 0.00376 ± 0.0007 | 0.0102 ± 0.001 |
| A14U G32C | 0.000397 ± 4e-05 | 3050 ± 580 |  |  | 6.36e-05 ± 8.6e-06 | 0.000199 ± 1.9e-05 | 0.000294 ± 2.6e-05 |
| A14U A33U A42G | 9.54e-05 ± 3.1e-05 |  |  |  |  | 7.08e-05 ± 1.9e-05 | 7.49e-05 ± 2.6e-05 |
| A14U U46A | 0.000437 ± 0.0001 | 2000 ± 930 |  | 2.43e-05 ± 9.4e-06 | 9.67e-05 ± 1.3e-05 | 0.000343 ± 3.4e-05 | 0.000323 ± 3.5e-05 |
| A14U U46C | 0.00036 ± 8.4e-05 | 956 ± 430 |  | 6.29e-05 ± 9.9e-06 | 0.000126 ± 1.4e-05 | 0.000395 ± 5.3e-05 | 0.000305 ± 4e-05 |

| Variant | kcat (glucosamine-6-phosphate [1]) [s⁻¹] | KM (glucosamine-6-phosphate [2]) [µM] | self-cleavage kobs at 40 uM GlcN6P (glucosamine-6-phosphate [3]) [s⁻¹] | self-cleavage kobs at 160 uM GlcN6P (glucosamine-6-phosphate [4]) [s⁻¹] | self-cleavage kobs at 640 uM GlcN6P (glucosamine-6-phosphate [5]) [s⁻¹] | self-cleavage kobs at 2500 uM GlcN6P (glucosamine-6-phosphate [6]) [s⁻¹] | self-cleavage kobs at 10000 uM GlcN6P (glucosamine-6-phosphate [7]) [s⁻¹] |
| --- | --- | --- | --- | --- | --- | --- | --- |
| A14U C16G | 0.000881 ± 0.00019 | 1840 ± 670 |  | 5.83e-05 ± 1.7e-05 | 0.000263 ± 3.3e-05 | 0.000429 ± 6.7e-05 | 0.000865 ± 0.00015 |
| A15C A52U | 0.000104 ± 4.8e-06 | 1830 ± 260 |  |  |  | 6.2e-05 ± 1.7e-05 | 8.65e-05 ± 1.9e-05 |
| A15C U54C | 0.00621 ± 0.0013 | 1740 ± 510 | 0.000176 ± 2.3e-05 | 0.000481 ± 8.7e-05 | 0.00131 ± 0.00024 | 0.00384 ± 0.00078 | 0.00556 ± 0.00077 |
| A15C U49G | 0.000113 ± 1.2e-05 | 1520 ± 550 |  |  |  | 8.06e-05 ± 2.4e-05 | 9.51e-05 ± 1.9e-05 |
| A14U G44A | 6.83e-05 ± 2.6e-06 | 2730 ± 310 |  | < 1e-05 |  | 3.21e-05 ± 6.8e-06 | 5.38e-05 ± 6.7e-06 |
| A14U G44U | 7.47e-05 ± 1.1e-05 | 3310 ± 1300 | < 1e-05 |  |  | 3.42e-05 ± 8.1e-06 | 5.55e-05 ± 8.3e-06 |
| A14G U69G | 0.000107 ± 2.2e-05 |  | 8.24e-05 ± 1.9e-05 | 5.73e-05 ± 1.7e-05 | 0.000175 ± 3.5e-05 | 0.000103 ± 2e-05 | 0.000113 ± 1.8e-05 |
| A15C G43A | < 1e-05 |  | < 1e-05 | < 1e-05 | < 1e-05 |  |  |
| A14U U47C | 0.000442 ± 6.2e-05 | 1430 ± 360 |  | 4.9e-05 ± 8.6e-06 | 0.000138 ± 1.3e-05 | 0.000238 ± 3.2e-05 | 0.000442 ± 5.2e-05 |
| A15C G32U | 0.00121 ± 6.6e-05 | 6690 ± 540 |  |  | 0.000107 ± 1.4e-05 | 0.000321 ± 4.8e-05 | 0.000731 ± 7.6e-05 |
| A15C G32C | 0.000182 ± 5.4e-06 | 3300 ± 240 |  |  | 3.08e-05 ± 1e-05 | 7.51e-05 ± 2e-05 | 0.000138 ± 1.7e-05 |
| A14U A15U | 0.00245 ± 0.00036 | 2240 ± 500 | 5.71e-05 ± 7.8e-06 | 0.000141 ± 1.6e-05 | 0.000602 ± 7.4e-05 | 0.00125 ± 0.00014 | 0.00202 ± 0.00018 |
| A14U C70U C71G | 4.59e-05 ± 1.2e-05 |  |  |  | 6.53e-05 ± 1.7e-05 | 3.73e-05 ± 1.3e-05 | 3.81e-05 ± 1.8e-05 |
| A14U G59U | < 1e-05 |  |  | < 1e-05 |  | < 1e-05 |  |
| A14U G29C | 1.25e-05 ± 3.3e-06 |  |  |  |  |  |  |
